Results: US20180022822A1, “NOVEL ANTI-FIBROBLAST ACTIVATION PROTEIN (FAP) BINDING AGENTS AND USES THEREOF” (Mabimmune Diagnostics AG, priority 2016, published 2018)

T1: transmembrane human FAP on FAP expressing HEK293 cells (Homo sapiens, UniProt Q12884)
T1 construct: HEK293 cells were transduced with retrovirus encoding full length human FAP cDNA; host or cells: HEK293 (retroviral transduction, G418 selected)
T1 sequence (Q12884 1-760): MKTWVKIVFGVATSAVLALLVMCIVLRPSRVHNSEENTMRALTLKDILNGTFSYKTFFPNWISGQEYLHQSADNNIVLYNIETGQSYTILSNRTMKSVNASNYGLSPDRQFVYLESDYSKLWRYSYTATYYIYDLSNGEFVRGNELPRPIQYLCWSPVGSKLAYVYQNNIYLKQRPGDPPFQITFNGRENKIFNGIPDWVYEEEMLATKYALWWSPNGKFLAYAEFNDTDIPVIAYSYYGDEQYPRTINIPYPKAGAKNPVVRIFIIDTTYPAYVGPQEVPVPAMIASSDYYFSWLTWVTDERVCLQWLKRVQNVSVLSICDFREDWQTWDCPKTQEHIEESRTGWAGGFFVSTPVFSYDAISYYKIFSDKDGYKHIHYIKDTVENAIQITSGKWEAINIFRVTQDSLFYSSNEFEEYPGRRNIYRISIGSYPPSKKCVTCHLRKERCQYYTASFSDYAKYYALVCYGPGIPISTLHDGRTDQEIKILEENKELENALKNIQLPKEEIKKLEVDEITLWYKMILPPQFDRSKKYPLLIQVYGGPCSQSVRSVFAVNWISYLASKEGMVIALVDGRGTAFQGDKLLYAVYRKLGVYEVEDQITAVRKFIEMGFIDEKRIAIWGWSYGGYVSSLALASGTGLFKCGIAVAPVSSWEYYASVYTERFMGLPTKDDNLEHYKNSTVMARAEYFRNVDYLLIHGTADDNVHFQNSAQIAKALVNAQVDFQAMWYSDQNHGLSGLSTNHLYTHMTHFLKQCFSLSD

T2: directly coated FAP (FAP) (Homo sapiens, UniProt Q12884)
T2 sequence (Q12884 1-760): T1 sequence (Q12884 1-760)

T3: captured FAP (sFAP) (Homo sapiens, UniProt Q12884)
T3 sequence (Q12884 1-760): T1 sequence (Q12884 1-760)

B1: NI-206.82C2: human-derived recombinant anti-FAP antibody; VH SEQ ID NO: 2 or 4 (PIMC), VL SEQ ID NO: 6 (antibody, V domains shown)
VH: QVQLQQSGPGLVKPSQTLSLTCAISGDSVSSNSVTWNWIRQSPSRGLEWLGRTYYRSKWYNDYAVSVKGRITINPDTSKNQFYLQLKSVTPEDAAVYYCARDSSILYGDYWGQGTLVTVSS
VL: QAVLTQPSSLSASPGASASLTCTLPSGINVGTYRIFWFQQKPGSPPQYLLSYKSDSDNHQGSGVPSRFSGSKDASANAGILLISGLQSEDEADYYCMIWHSSAWVFGGGTKLTVL
B2: NI-206.18H2: human-derived recombinant anti-FAP antibody; VH SEQ ID NO: 41, VL SEQ ID NO: 43 (antibody, listed as Homo sapiens, V domains shown)
VH: QVQLQESGPRLVKPSETLSLTCTVSGYSISNGYYWGWIRQPPGQGLEWIASVWHSGNTYHNPSLKSRVTILVDTLKNQFSLNLKSVTAADTALYYCARSYTRNDVGAFETWGQGTMVTVSS
VL: SYELTQPPSVSVSPGQTARIACSGDELPKRYAYWYQQKSGQAPVLVMYEDTKRPSGIPERLSGSSSGTVTTLTISGAQVEDEADYYCYSTAPSGNHTFVFGTGTRVTVL
B3: NI-206.6D3: human-derived recombinant anti-FAP antibody; VH SEQ ID NO: 49, VL SEQ ID NO: 51 (antibody, listed as Homo sapiens, V domains shown)
VH: EVQLVESGGGLVKPGESLRLSCAASGFTFSKAWMNWVRQGPGKGLEWVGRVKSKTDGGTTDYAAPVKGRFTISRDDSKDTVFLQMNSLKTEDTAVYYCSIQFIVVGDRGRDDQYMDVWGKGTTVTVSS
VL: SYVLTQPPSVSVSPGQTARITCSGDALPKQYAFWYQQKPGQAPVIMIYKDNQRPSGIPERFSGSSSGTTVTLTISGVQTEDEADYYCQSADSTNTHVVFGGGTKLTVL

Each molecule was assayed against T1, transmembrane human FAP on FAP expressing HEK293 cells (assay: flow cytometry of Cy5 labelled antibodies on FAP-HEK293 cells in pH adjusted PBS). Details: pH 7.4 to 6.2; 0.1-100 nM Cy5 labelled antibody.
Assay type: cell-based
Procedure: To evaluate the binding of NI-206.82C2, NI-206.59B4, NI-206.27E8, NI-206.12G4, NI-206.18H2 and NI-206.6D3 to transmembrane human FAP, an FAP expressing HEK293 cell line was received from the National Institutes of Health, Bethesda, Md. The generation of this FAP expressing HEK293 cells is described in: J. Exp. Med. 2013 Vol. 210 No. 6 1125-1135. HEK293 cells were transduced with retrovirus encoding full length human FAP cDNA. Cloning was performed using Fast Cloning Pack and FastDigest restriction enzymes (both from Fermentas). Transient retroviral supernatants were generated by transfecting 293GP cells with the FAP plasmid using Lipofectamine 2000 (Invitrogen). Retroviral supernatants were collected at 48 h after transfection and centrifuged onto Retronectin-coated (10 μg/ml; Takara), non-tissue culture-treated 6-well plates at 2,000 G for 2 h at 32° C. These retroviral supernatants where then used to transduce HEK293 cells overnight. Transduced FAP-HEK293 cells were selected with 1 mg/ml G418 (CellGro).
500′000 FAP-HEK293 cells were incubated for 1 hr at 4° C. either with Cy5 labelled NI-206.82C2, NI-206.59B4, NI-206.27E8, NI-206.12G4, NI-206.18H2 or NI-206.6D3 or with Cy5 labelled 43A11 at four different antibody concentrations (0.1, 1, 10, and 100 nM) in seven different pH-adjusted PBS buffers (pH 7.4, 6.8, 6.6, 6.5, 6.4, 6.3 and 6.2). PBS buffers were adjusted to using MES monohydrate (Sigma Aldrich). Following incubation, cells were washed 3 times with 200 uL in matched pH-adjusted PBS, spun at 400G for 4 min, and resuspended in 200 μL of pH adjusted buffer.
To analyze antibody binding, fluorescent activated flow cytometry was performed using a BD Fortesa device for forward scatter, side scatter, and the mean fluorescent intensity (MFI) of the Cy5 channel was recorded using a […] laser excitation and 600/20 filter. Viable cells were gated by forward and side scatter, and singlets/doublet exclusion, and the MFI for Cy5 was quantified using FlowJo software Version 10.1.

**Q.** For B1, which “paratope-specific avidity (ΔMFI) under acidic conditions vs. at pH 7.4” value is on record?
**A.** Its value is “increased”.

**Q.** Which “paratope-specific avidity (ΔMFI) under acidic conditions vs. at pH 7.4” value does the source give for B2 here?
**A.** The value was “increased”.

**Q.** Which “paratope-specific avidity (ΔMFI) under acidic conditions vs. at pH 7.4” value does the source give for B3 here?
**A.** The value was “increased”.

These molecules were tested against T2, directly coated FAP (FAP) (assay: direct ELISA on directly coated FAP). Details: ELISA, varying antibody concentrations.
Assay type: binding
Procedure: (§1) ELISA assays were performed with varying antibody concentrations to validate the binding of the exemplary antibodies of the present invention to FAP and to be able to determine their half maximal effective concentration (EC50). For the exemplary recombinant human NI-206-18H2, NI-206-20A8, NI-206-6D3, ‘NI-206-14C5, NI-206-34C11, NI-206.82C2, NI-206.59B4, NI-206.22F7, NI-206.27E8, NI-206.12G4 and NI-206.17A6 antibodies, 96-well microplates (Costar, Corning, USA) were coated with FAP, with a mixture of the 3 peptides or with BSA (Sigma-Aldrich, Buchs, Switzerland) diluted to a concentration of 5 μg/ml in carbonate ELISA coating buffer (15 mM Na2CO3, 35 mM NaHCO3, pH 9.4) for the direct ELISA. For the capture ELISA, the microplates were coated with mouse anti-His monoclonal antibody (Clontech) diluted to a concentration of 3 μg/ml in PBS, the plates were then blocked, FAP or BSA were diluted to a concentration of 2 μg/ml in PBS and added to the plates to be captured. The binding efficiency of the antibodies was then tested.
(§2) The EC50 values were estimated by a non-linear regression using GraphPad Prism (San Diego, USA) software. […] The binding of NI-206.12G4 towards sFAP was not tested.

**Q.** For B1, which “binding to the directly coated FAP” value is on record?
**A.** The value was “less efficiently”.

**Q.** Which “binding to the directly coated FAP” value does the source give for B2 here?
**A.** The value was “specifically, strongly and similarly bind”.

**Q.** With B3 as the molecule, how does the “binding to the directly coated FAP” value read?
**A.** The value was “strongly and similarly bind”.

Each molecule was assayed against T3, captured FAP (sFAP) (assay: capture ELISA, FAP captured via his-tag with coated anti-His antibody). Details: ELISA, varying antibody concentrations.
Assay type: binding
Procedure: as §1, §2

**Q.** For B1, which “binding to the captured FAP” value is on record?
**A.** Its value is “specifically and strongly binds”.

**Q.** B2 was tested. Which “binding to the captured FAP” value did it give?
**A.** Its value is “specifically, strongly and similarly bind”.

**Q.** For B3, which “binding to the captured FAP” value is on record?
**A.** Its value is “strongly and similarly bind”.
